Structures can show the parent of a compound that is named as a salt. Each block holds one compound with its values, some of them ahead of it.
Legend:
MDA-MB-231-RFP tumors [1] = conditions: mouse, in vivo
Procedure: (§1) Mammary fat pads (left, bottom nipple) of female mice were inoculated with harvested MDA-MB-231-RFP human breast cancer cells (4 × 10^6 in 100 μl saline). Tumors were classified as 'small' (≤100 mm^3) at one to two weeks from time of cell injection, or 'large' after three to four weeks (necrotic tumors, 250 to 500 mm^3). To avoid tumor burden, mice were sacrificed (cervical dislocation) when tumor size reached 10% of body weight or at 90 days post-implantation. External caliper measurements, length (L), width (W) and depth (D) were used to calculate in vivo tumor volume according to the formula: V = L/2 · W/2 · D/2 · π · 4/3 [46].
(§2) The in Vivo Optical Imaging System (IVIS®100/XFO-12, Xenogen Corp., Alameda, CA, USA) was used to acquire fluorescent images of the RFP-expressing tumors, as well as Bchl-D compounds associated with tissues and organs after their intravenous (i.v.) infusion to the tested animals. The field of view was 15 cm. RFP fluorescence, in units of photons/sec, was detected using 525/50 nm and 612/75 nm filter sets for excitation and emission, respectively, with one second integration time. NIR fluorescence of the different Bchl-Ds, in units of photons/sec, was detected using 680/30 nm and 847/75 nm filter sets for excitation and emission, respectively, at an integration time of five seconds. Background fluorescence for all quantitative analyses was calculated by recording the average fluorescence (photons/sec)/cm^2 from three animals in three different areas around and within the tumor of untreated animals provided with a similar diet for three days before measurements.
(§3) Drug accumulation was determined following i.v. administration of molar equivalents of the Bchl-D moiety to the tail vein of mice fed with a chlorophyll-free, purified diet (Harlan Teklad, Harlan Laboratories, Indianapolis, IN, USA) for three days before administration (in order to reduce skin and food autofluorescence). Before imaging, mice were anesthetized by intraperitoneum injection of a 30 μl mixture of 85:15 ketamine:xylazine.
(§4) Xenogen Living Image Software (Xenogen Corp., Alameda, CA, USA) was used for sequential fluorescent image acquisition [see Additional file 1] and superimposition of photographic images of mice and color-coded fluorescent images.

MDA-MB-231-RFP tumors [2] = assay: In vivo competition between STL-6014 and free c(RGDfK); design: species or system CD-1 nude female mice
Procedure: STL-6014 (140 nmol, 7.5 mg/kg) was i.v. injected to the tail vein of mice one hour after being pre-injected with an excess (8.5 μmol) of c(RGDfK) free peptide. Whole-body fluorescence images were recorded up to 24 hours post-STL-6014 injection (IVIS®, Xenogen Corp., Alameda, CA, USA) with the respective filter settings, described above.

[3] = test system: large MDA-MB-231-RFP tumors; assay: Fluorescence imaging of dissected tumors (spatial distribution); type: in vivo, CD-1 nude female mice; conditions: 15 mg/kg i.v.
[4] = Biodistribution studies (tissue extraction, fluorescence); type: in vivo, CD-1 nude female mice
Procedure: Anaesthetized mice were i.v. injected with 15 mg/kg STL-6014 (n = 27) or 9 mg/kg STL-7012 (n = 15). At each indicated time point, three animals were sacrificed and blood, kidney, liver and tumor tissues were collected into pre-weighed vials and frozen at -20°C. Tissue samples were homogenized in methanol (100 mg tissue/ml) and extracted the next morning by centrifugation (13,000 × g five minutes) at room temperature. Supernatants were diluted in methanol by a factor of two and drug concentration was determined by fluorescence measurements (Varian - Cary Eclipse spectrofluorimeter, Palo Alto, California, USA) at 750 nm (peak values). Drug concentrations were interpolated from a fluorescence calibration curve, based on predetermined drug concentrations using absorption spectroscopy.

HSA = HSA (Homo sapiens, UniProt P02768); assay: Association constants of Bchl-Ds to HSA (spectroscopic titration); type: binding; conditions: for HSA association constant Ka(HSA): 1:1 non-covalent complex with HSA
From the text: Association constants of Bchl-Ds to HSA were deduced from spectroscopic measurements of the ratio between Bchl-Ds and HSA for different concentrations of HSA using both factor analysis, as previously described and by monitoring changes in the near infrared (NIR) absorption of the Bchl-Ds during titration with HSA. Briefly, all four Bchl-Ds present broad NIR absorption with reduced intensity in SA-free aqueous solutions. Upon addition of SA, they form 1:1 complexes with the added protein ((Bchl-D)/SA) with strong and narrow NIR absorption bands. The narrow-band absorption is proportional to the ((Bchl-D)/SA) concentration enabling calculation of the association constant Ka through the following equation: [drawing 1]
Where [SA]0 is the analytical concentration of the added SA and [(Bchl-D/SA)] is the concentration of the Bchl-D complex with SA calculated from the spectral changes.

in vivo = conditions: female, CD-1 nude, mouse
Procedure: as §1, §2, §3, §4

MDA-MB-231-RFP tumors [5] = assay: Whole-body fluorescence imaging of drug accumulation and clearance in tumors; conditions: large necrotic tumors, 9 mg/kg i.v., from one hour post injection
Procedure: as §1, §2, §3, §4

primary xenografts = conditions: circulates as non-covalent complex with SA; cited from earlier work
αVβ3 integrin receptors = test system: αVβ3 integrin receptors; design: method as in PMID 16309948; conditions: cited from earlier work
[6] = design: method as in PMID 11216533; conditions: cited from earlier work
[7] = 48 to 72 hours post-administration

Chain of HSA (P02768 25-609): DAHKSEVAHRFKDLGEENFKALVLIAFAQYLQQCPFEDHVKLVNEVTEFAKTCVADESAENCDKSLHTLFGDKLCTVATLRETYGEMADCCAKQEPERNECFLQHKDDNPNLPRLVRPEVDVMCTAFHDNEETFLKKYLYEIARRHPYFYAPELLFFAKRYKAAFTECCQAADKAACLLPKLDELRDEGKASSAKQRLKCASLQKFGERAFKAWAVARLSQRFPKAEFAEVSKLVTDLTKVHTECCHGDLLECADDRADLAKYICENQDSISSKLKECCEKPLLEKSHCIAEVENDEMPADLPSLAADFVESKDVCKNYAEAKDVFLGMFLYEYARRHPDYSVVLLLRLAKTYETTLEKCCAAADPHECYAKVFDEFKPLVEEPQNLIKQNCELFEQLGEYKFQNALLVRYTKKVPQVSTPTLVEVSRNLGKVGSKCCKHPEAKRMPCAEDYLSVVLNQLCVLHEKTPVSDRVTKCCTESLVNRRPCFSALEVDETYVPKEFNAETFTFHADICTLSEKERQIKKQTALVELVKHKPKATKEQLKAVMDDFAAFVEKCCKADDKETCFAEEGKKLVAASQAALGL

- Kd (HSA; as restated in discussion, read-out: Ka, association with SA (converted)): 8.33 µM
Compound: CC[C@H]1c2cc3[nH]c(c(CC(=O)OC)c4nc(cc5[nH]c(cc(n2)[C@@H]1C)c(C(C)=O)c5C)[C@@H](C)[C@@H]4CCC(=O)NCCCC[C@@H]1NC(=O)[C@@H](Cc2ccccc2)NC(=O)[C@H](CC(=O)O)NC(=O)CNC(=O)[C@H](CCCNC(=N)N)NC1=O)c(C(=O)NCCS(=O)(=O)O)c3C [STL-6014, 3^1-oxo-15-methoxycarbonylmethyl-Rhodobacteriochlorin 13^1-(2-sulfoethyl)amide-17^3-c(RGDfK)amide potassium salt]
- time to full clearance from tumor (MDA-MB-231-RFP tumors [1]): less than two
- tumor half lifetime (T1/2) (MDA-MB-231-RFP tumors [1]): in the range of days
- clearance from small tumors relative to large tumors (faster) (MDA-MB-231-RFP tumors [1]; iv, 15 mg/kg): more than 10 fold
- persistence of tumor fluorescence (MDA-MB-231-RFP tumors [1]; iv, 15 mg/kg): still detectable at nine days
- t^1_1/2 of tumor fluorescence, bi-exponential decay (MDA-MB-231-RFP tumors [1]; iv, 15 mg/kg): 12.0 ± 3.5 h
- t^2_1/2 of tumor fluorescence, bi-exponential decay (MDA-MB-231-RFP tumors [1]; iv, 15 mg/kg): 210.0 ± 86.0 h
- time for tumor fluorescence to return to background values (MDA-MB-231-RFP tumors [1]; iv, 15 mg/kg): ≤ 48 h
- time of peak tumor fluorescence after administration (MDA-MB-231-RFP tumors [1]; iv, 15 mg/kg): six to eight
- STL-6014 uptake and accumulation after pre-administration of free c(RGDfK) (MDA-MB-231-RFP tumors [2]; large tumors, data not shown): not affected
- STL-6014 tumor fluorescence after pre-injection of free c(RGDfK) (MDA-MB-231-RFP tumors [2]; small tumors, 7.5 mg/kg (140 nmol) i.v. one hour after 61-fold molar excess c(RGDfK)): almost no STL-6014 fluorescence was detected in the tumor
- location of fluorescence signal in dissected tumor ([3]; beyond 16 hours post-injection): only observed in the necrotic domain
- location of fluorescence signal in dissected tumor ([3]; four hours post injection): within the viable tumor region alone
- t1/2 of hepatic clearance ([4]; 15 mg/kg i.v.): about four
- time to clear to nearly background levels in normal tissues ([4]; 15 mg/kg i.v.): less than 72 hours
- tumor level relative to blood [4, 7]: about two orders of magnitude
- tumor level relative to kidney, liver, intestines, lung and skin [4, 7]: about two
- tumor level relative to spleen, heart, brain, fat and muscle ([4]; 48 to 72 hours post-administration, data not shown): about 10 fold
- time of peak levels in normal tissues post-injection ([4]; blood, liver, kidney, 15 mg/kg i.v.): less than five
- time of peak concentration in tumors post-injection ([4]; large tumors, 15 mg/kg i.v.): eight
- peak concentration in tumors ([4]; large tumors, 15 mg/kg i.v., eight hours post-injection): 11 μg drug/gr tumor tissue
- peak tumor level as share of the initial drug dose ([4]; large tumors, eight hours post-injection): about 3.0%
- Tmax (in vivo): 48 to 72 h
- half-life (in vivo; iv, 15 mg/kg, t1/2 of tumor fluorescence, mono-exponential decay): 14 ± 1.5 h

Compound: CC[C@H]1c2cc3[nH]c(c(CC(=O)OC)c4nc(cc5[nH]c(cc(n2)[C@@H]1C)c(C(C)=O)c5C)[C@@H](C)[C@@H]4CCC(=O)O)c(C(=O)NCCS(=O)(=O)[O-])c3C.[K+] [STL-7012, 3^1-oxo-15-methoxycarbonylmethyl-Rhodobacteriochlorin 13^1-(2-sulfoethyl)amide dipotassium salt]
- accumulation in tumor, fluorescence of tissue extracts ([4]; 9 mg/kg i.v., any time longer than one hour post administration): no STL-7012 accumulation in the tumor
- tumor fluorescence in whole-body imaging (MDA-MB-231-RFP tumors [5]): No specific tumor fluorescence
- HSA association constant Ka(HSA) (HSA): 0.44 ± 0.09 µM⁻¹

Compound: CC[C@H]1c2cc3[n-]c(c(CC(=O)OC)c4nc(cc5[n-]c(cc(n2)[C@@H]1C)c(C(C)=O)c5C)[C@@H](C)[C@@H]4CCC(=O)[O-])c(C(=O)NCCS(=O)(=O)[O-])c3C.[H+].[H+].[Pd+2] [WST11]
- accumulation in the tumor tissue (primary xenografts): no accumulation in the tumor tissue
- HSA association constant Ka(HSA) (HSA): 0.54 ± 0.07 µM⁻¹

Compound: Cyclo-Arg-Gly-Asp-D-Phe-Lys [c(RGDfK)]
- Ka, association of c(RGDfK) moiety with αVβ3 integrin receptors (αVβ3 integrin receptors): about 10^9 M^-1
- half life in a similar animal model [6]: minutes

— paper PMC2917020, “Novel design principles enable specific targeting of imaging and therapeutic agents to necrotic domains in breast tumors” (Breast Cancer Research : BCR, 2010)
